Where no end group is shown, it is not given here. [ ]: non-standard residue; d: D form. Lys(Me3) = C[N+](C)(C)CCCC[C@H](N)C(=O)O; PEG = not defined here
T1: MBP-tagged cysteine-rich domain (566 aa-657 aa) of Tpb2p, MBP-Tpb2p-CRD (WT) (Tetrahymena thermophila, UniProt D2Z1K6 566-657)
T1 construct: Tpb2p (Tetrahymena piggyBac-like transposase 2), cysteine-rich domain, aa 566-657; amplified from a codon-optimized TPB2 coding region in pMAL-TPB2; Cloned in pMalC2X, which is expected to put MBP at the N-terminus (surmise); also called cysteine-rich domain of Tpb2p; source: E. coli BL21(DE3), purified (Amylose resin, maltose elution, dialysis)
T1 sequence (looked up): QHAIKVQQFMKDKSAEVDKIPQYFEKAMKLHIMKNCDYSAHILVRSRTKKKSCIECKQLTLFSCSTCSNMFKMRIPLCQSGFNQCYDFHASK


target: T1, MBP-tagged cysteine-rich domain (566 …); assay: pull-down; biotin-tagged histone peptides (1 ug) immobilised on streptavidin Dynabeads, 1 ug MBP-Tpb2p-CRD added, overnight at 4°C; 10 mM Tris pH 7.5, 0.1 mM ZnSO4, 0.05% NP40, 250 mM NaCl; western blot with anti-MBP; conditions: both partners purified

Row | Binder | binding result
1 | PRKQLASKAARKSAPATGGI-{PEG-biotin} (peptide, UniProt P69150 17-36, looked up, reading uncertain, histone H3, Tetrahymena, amino acids 16-35; also called unmodified peptide (16-35); source: synthetic peptide) [Tetrahymena histone H3 peptide, amino acids 16-35, unmodified, C-terminally biotinylated] | binds
2 | ARTKQTARKSTGAKAPRKQ (peptide, UniProt P69150 2-20, looked up, tri-methylated lysine 9; biotin at the C-terminus with a PEG linker, histone H3, Tetrahymena, amino acids 1-19; also called H3K9me3 peptide; source: synthetic peptide) | binds

More lines, now with the values ahead:

Row | binding result | Binder
3 | binds | ARTKQTARKSTGAKAPRKQ-{PEG-biotin} (peptide, UniProt P69150 2-20, looked up, reading uncertain, histone H3, Tetrahymena, amino acids 1-19; also called unmodified peptide (1-19); source: synthetic peptide) [Tetrahymena histone H3 peptide, amino acids 1-19, unmodified, C-terminally biotinylated]
4 | binds | PRKQLASKAAR[Lys(Me3)]SAPATGGI-{PEG-biotin} (peptide, UniProt P69150 17-36, looked up, reading uncertain, histone H3, Tetrahymena, amino acids 16-35; also called H3K27me3 peptide; source: synthetic peptide)
5 | binds | ART[Lys(Me3)]QTARKSTGAKAPRKQ-{PEG-biotin} (peptide, UniProt P69150 2-20, looked up, reading uncertain, histone H3, Tetrahymena, amino acids 1-19; That the K4me3 peptide is the 1-19 peptide follows from the position of the residue; also called H3K4me3 peptide; source: synthetic peptide)

— publication PMC3861120, “A Domesticated PiggyBac Transposase Interacts with Heterochromatin and Catalyzes Reproducible DNA Elimination in Tetrahymena” (PLoS Genetics, 2013)
